From article PMC7467306
pKd: −log10 of the molar value.

Tests used:
[1] = target: human insulin receptor isoform A (human) (UniProt P06213); test: radioligand binding; competition with [125I]-monoiodotyrosyl-TyrA14-insulin on intact human IM-9 lymphocytes (human IR-A)
[2] = target: human IGF-1 receptor (human) (UniProt P08069); test: radioligand binding; competition with [125I]-monoiodotyrosyl-IGF1 on intact mouse fibroblasts transfected with human IGF-1R and with deleted mouse IGF-1R
[3] = target: His-tagged domain 11 (D11) of human IGF2R (human) (UniProt P11717); test: radioligand binding; competition of unlabeled ligand (10^-12-10^-6 M) with [125I]-monoiodotyrosyl-Tyr2-IGF2 (43000 cpm, 0.02 nM) for D11 held in wells on iBodies; 16 h at 5 °C, HEPES binding buffer pH 7.6 with 1 % BSA; one-site fit with ligand depletion, Kd of the tracer set to 2 nM
Chain of UniProt P11717 (P11717 1508-1651): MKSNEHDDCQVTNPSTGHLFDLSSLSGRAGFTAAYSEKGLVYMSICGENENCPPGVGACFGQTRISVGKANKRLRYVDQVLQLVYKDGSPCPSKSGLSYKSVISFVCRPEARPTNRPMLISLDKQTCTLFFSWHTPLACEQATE

Chain of UniProt P06213 (P06213 other isoform, or with tags, fused parts or gaps): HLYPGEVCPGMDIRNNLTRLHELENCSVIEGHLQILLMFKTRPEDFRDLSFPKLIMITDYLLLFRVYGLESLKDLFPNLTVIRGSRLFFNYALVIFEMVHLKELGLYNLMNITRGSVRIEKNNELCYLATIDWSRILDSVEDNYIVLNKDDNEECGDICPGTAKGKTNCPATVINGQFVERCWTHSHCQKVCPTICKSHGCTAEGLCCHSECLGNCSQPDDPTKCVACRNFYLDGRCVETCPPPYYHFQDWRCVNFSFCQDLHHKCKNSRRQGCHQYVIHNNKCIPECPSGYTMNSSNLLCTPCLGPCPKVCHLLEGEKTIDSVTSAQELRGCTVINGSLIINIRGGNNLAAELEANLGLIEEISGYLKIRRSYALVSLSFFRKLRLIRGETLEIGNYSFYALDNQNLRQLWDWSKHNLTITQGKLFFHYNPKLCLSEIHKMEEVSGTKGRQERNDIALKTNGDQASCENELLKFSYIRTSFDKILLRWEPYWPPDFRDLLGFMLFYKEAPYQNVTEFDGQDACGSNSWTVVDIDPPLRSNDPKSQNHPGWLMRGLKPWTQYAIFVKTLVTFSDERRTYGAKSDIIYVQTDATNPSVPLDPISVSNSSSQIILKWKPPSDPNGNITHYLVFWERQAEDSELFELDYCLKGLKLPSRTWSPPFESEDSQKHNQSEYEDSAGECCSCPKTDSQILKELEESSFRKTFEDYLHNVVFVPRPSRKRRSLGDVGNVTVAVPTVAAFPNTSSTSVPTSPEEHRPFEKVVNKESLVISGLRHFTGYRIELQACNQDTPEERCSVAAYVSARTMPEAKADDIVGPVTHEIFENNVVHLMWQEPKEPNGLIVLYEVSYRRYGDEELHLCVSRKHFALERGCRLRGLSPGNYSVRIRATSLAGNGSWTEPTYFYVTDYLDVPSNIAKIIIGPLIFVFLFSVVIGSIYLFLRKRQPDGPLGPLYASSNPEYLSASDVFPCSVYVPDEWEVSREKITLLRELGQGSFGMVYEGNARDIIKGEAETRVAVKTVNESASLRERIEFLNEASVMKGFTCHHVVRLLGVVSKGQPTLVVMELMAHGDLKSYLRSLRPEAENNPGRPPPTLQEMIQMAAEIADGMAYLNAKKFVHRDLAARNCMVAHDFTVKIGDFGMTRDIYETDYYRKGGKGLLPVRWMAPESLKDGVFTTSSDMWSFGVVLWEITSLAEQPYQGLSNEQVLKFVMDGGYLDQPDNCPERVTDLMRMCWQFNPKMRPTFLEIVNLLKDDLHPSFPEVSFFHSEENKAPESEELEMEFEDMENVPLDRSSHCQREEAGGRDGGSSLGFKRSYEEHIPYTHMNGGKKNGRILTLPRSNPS

pKd [1]: 8.14 | pKd [2]: 8.96 | pKd [3]: 9.55
Substance: Leu19-IGF2 analog (ligand)
